According to the DeepSol protein solubility set:

Assay: soluble on expression in E. coli; label from the status in PepcDB or PDB records

Row | Sequence | soluble on expression in E. coli
1 | MLTGLLDVPYRKSFALLEELLERREAEEQTLAISTLATQLKMQQNTILQSVALLQTEIEKNGWENLFSLSANAKEITFWFAPYFQLSFLMPYFVKKSFAYQVLTYAFNHNAIDSKHFEKVLEISSSTFTRKIGQLNQWLQKYQIEINLKRTNVLVGKEKDIRIFFMMLFWNNYSEGDWPLHTITKKEVHSLFRRLKHSVSFNTTQDFTKDLIFSAVILARWKEGFFIKETFVEEEAIVNPFVNLSEFELFFKEEALHQVPTKFIQKEGLFAFFLLTISVSYATQDVLEIPAARMHMVQLLGSPIKEIIYQLTSFYQIKLTFHEYLYLYTSIQNLSVFFKTFVTIANPFVQESFLKEALQKIQVSTKM | not soluble
2 | AHHHHHHGSPVYEINGIKPKIHPTAYVDENAVIIGDVVLEEKTSVWPSAVLRGDIERIYVGKYSNIQDNVSIHTSHGYPTEIGEYVTIGHNAVVHGAKIGNYVIIGMGAIILDGAKIGNHVIIGAGALVPPNKEIPDYSLVIGVPGKVVRQLSEEEIEWTKKNAEVYVELAEKHMKGRKKIMIYRIISHIPSIFFKPAYDLYERYLLEKVKAGVIPKHVAIIMDGNRRWARKREKPPWYGHFFGSKKLEEIVEWCHELGIRILTVYAFSTENFKRSKEEVDRLMKLFEEKFRELVTDRRVHEYGIRVNVMGRKELLPKNVREAAEEAERVTRKYNNYFLNIALAYGGRSEIVDAIKDIVNDVLEGRLKLEDINEEIVRKYLYVPNMPDPDIVIRTGGEVRISNFLLYQIAYSELFFVDVYFPEFRKIDFLRIIREFQKRERRFGR | soluble
3 | GSMDPSGVKVLETAEDIQERRQQVLDRYHRFKELSTLRRQKLEDSYRFQFFQRDAEELEKWIQEKLQIASDENYKDPTNLQGKLQKHQAFEAEVQANSGAIVKLDETGNLMISEGHFASETIRTRLMELHRQWELLLEKMREKGIKLLQ | soluble
4 | MAVKHASAPKAYINITGLGFAKLTKEGAELKYSDITKTRGLQKIGVETGGELKTAYADGGPIESGNTDGEGKISLQMHAFPKEIRKIVFNEDYDEDGVYEEKQGKQNNYVAVWFRQERRDGTFRTVLLPKVMFTNPKIDGETAEKDWDFSSEEVEGEALFPLVDNKKSVRKYIFDSANMTNHGGDGEKGEEAFLKKILGEEYTGNVTEDNEETLLEHHHHHH | soluble
5 | YDTAYGGFGRGMKFPMHHALLLLARASMAGDRRALNMLTGTLDHMLFSGVHDLVEGGLHRYSVTRDWRLPHYEKMLYDQAWIIQVLAEAYAASGDRLYLDFAVSTLEFAMSWLWTGRGFASSVDADTGEGEGAYYT | not soluble
6 | MRTIVFDVDDTLYDQQQPFRNAMTKIFPNVATEDMHELYLRFRHHSDETFPKVLANEWSLDFMRFFRMNETLKDLNYPGISQEEGKIFQQVYEEELDNITMHPEVTKLLDTLQEKEIPMGIITNGPTDHQFKKVKQLNIEKWVPSQNIIISQSTGFQKPEKEIFDLACNQFCMEPEHTLYVGDSYDNDIVGARNGGWHSLWFNHRSRELPSCQPASHLAEVTCFTELCPTVEKLFNL | not soluble
7 | MSLKFVTIRDIAREAGVSINTVSRALNDKPDINVETKKKVLEVADRLGYIRDATAVSLRYGLTRVIGVILEDSSNPFYSEVLKGIEMAAKKKKFNVIFMNTERSYELENEAIKTMIGRRVDGMIISPTQEKCDDIKLLSEKGIPFVVLGVHFDELNVPEIYTDDEKGGYLATKHLIEIGRRRILFLNGFTYKSVAKMRLNGYRKALKEFGLEYDKSLVHEIEEGYENAYNKVKELLKKGIKFDSIFCFNDVFAIGAIGALKEEGIKVPQDIAVVGYDDIYFSKFISPSLTTVKIDKILEGKLAFEMLHGILTKKTGKNVKNVLDVELIVRESTIDKIGEGHHHHHH | soluble
8 | MANGTVKIAEQSGVLPIAGDKIVLITARGSGRWIIPKGYIEKGMSPAESAAKEAWEEAGIVGSVRHEEIGTYSYRRPSGIFSVRIYPLEVESLLEQWDEMHVRQRRLVTPSEAIEMICLKELRSLITDYLIKRFDFLEHHHHHH | not soluble
9 | MHILVVGVDYKSAPIEIREKVSFQPNELAEAMVQLKEEKSILENIIVSTCNRTEIYAVVDQLHTGRYYIKKFLADWFQLSKEELSPFLTFYESDAAVEHLFRVACGLDSMVIGETQILGQVRDSFKTAQQEKTIGTIFNELFKQAVTVGKRTHAETDIGSNAVSVSYAAVELAKKIFGNLSSKHILILGAGKMGELAAENLHGQGIGKVTVINRTYLKAKELADRFSGEARSLNQLESALAEADILISSTGASEFVVSKEMMENANKLRKGRPLFMVDIAVPRDLDPALNDLEGVFLYDIDDLEGIVEANMKERRETAEKVELLIEETIVEFKQWMNTLGVVPVISALREKALAIQSETMDSIERKLPHLSTREKKLLNKHTKSIINQMLRDPILKVKELAADADSEEKLALFMQIFDIEEAAGRQMMKTVESSQKVHSFKKAESKAGFSPLVSE | not soluble
10 | MSLMKITSVDIIDVANDFASATSKWRPVVVKINTDEGISGFGEVGLAYGVGASAGIGMAKDLSAIIIGMDPMNNEAIWEKMLKKTFWGQGGGGIFSAAMSGIDIALWDIKGKAWGVPLYKMLGGKSREKIRTYASQLQFGWGDGSDKDMLTEPEQYAQAALTAVSEGYDAIKVDTVAMDRHGNWNQQNLNGPLTDKILRLGYDRMAAIRDAVGPDVDIIAEMHAFTDTTSAIQFGRMIEELGIFYYEEPVMPLNPAQMKQVADKVNIPLAAGERIYWRWGYRPFLENGSLSVIQPDICTCGGITEVKKICDMAHVYDKTVQIHVCGGPISTAVALHMETAIPNFVIHELHRYALLEPNTQTCKYNYLPKNGMYEVPELPGIGQELTEETMKKSPTITVKEGHHHHHH | soluble
11 | MNTFQMRDKLKERLSHLDVDFKFNREEETLRIYRTDNNKGITIKLNAIVAKYEDKKEKIVDEIVYYVDEAIAQMADKTLESISSSQIMPVIRATSFDKKTKQGVPFIYDEHTAETAVYYAVDLGKSYRLIDESMLEDLKLTEQQIREMSLFNVRKLSNSYTTDEVKGNIFYFINSNDGYDASRILNTAFLNEIEAQCQGEMLVAVPHQDVLIIADIRNKTGYDVMAHLTMEFFTKGLVPITSLSFGYKQGHLEPIFILGKNNKQK | not soluble
12 | MSLAGTIAIKNGYVFDPLNEINGEKMDIFIRDGKVVKELSASEMKTSRVIDASGMTVMPGGVDSHSHVAGAKVNAGRSMRPEDHYKANLKKTPLTHSGSGYTVPSVYKQGYDYAAMGYTTVFEAAVPPLEARHTHEEMRATPLLDMGGYLVLGNNFFLMRYLRDGDMEKAAAYVAWMMKTHKTYGIKCVNPAGVENWAWGKNVSTLDETNIHFEITPREVIKGLTEVNETLGMPMPVHLHANNLGHPGCYAITKDSLKIPDGVKTKQNMAVEWAETKMDLSRDRSVYLTHLMFNSFAGTTWGDCESGVKDIADYINNKDHVVIDSGCTPFGEATVMTGDGPAIHDLYTLTGNKWSNTDVEMECGSGVLPFTYLKSNPVHSLQWAMGLECLLLIKDPWKTIMTTDSPNGGPFTKYPEVMTWIMSEAFRKQTFSECHKWANDRSELGGINRELSLYDLAILTRANPAKTIGMAHRKGSLGVGADGDVTVYNINPQQLDANNYEALLRTFRKAEYTVKGGEIVAVKGEIVSLPEKRTYYSEVHVENEREKEMLVDVKEWFRYYTLGFANYSTPEKYLANPTPIQVNSEGHHHHHH | not soluble
13 | MYRLERTQRLPISIDEAWDFFASPDNLKKITPAYMGFDIKSGGGIPMYAGMIIKYTVRPLLGIPMTWVTEITHVEPQRFFVDEQRVGPYAIWHHQHHFKAIENGVEMTDILHYKLPFGILGNLAHPFLVKNKLEEIFNFRNKKMVELFGTYKLEHHHHHH | soluble
14 | MMITRELVLKANREQPPYASILALAASGFSLEKSVQFSEKQQLALNLDGELLSNDVEIARIIAQSTDAADSLLGSSIIDFAVVDDLTNFIADAVTKNDYSLLLGKDFPTKILDNSLTVADFAIFSVAHNNPQLKAKFSGIIDKVLKEPTLAAAHNFVGLYKSAAAPTATASTGKEKKKDEGKFVELPGAEKGKVVVRFPPEASGYLHIGHAKAALLNQYYQQAFEGQLIMRFDDTNPAKENAHFEHVIKEDLSMLNIVPDRWTHSSDHFEMLLTMCEKLLKEGKAFVDDTDTETMRNEREQRQDSRNRSNTPEKNLQLWEEMKKGSPKGLTCCVRMKIDMKSNNGAMRDPTIYRCKPEEHVRTGLKYKVYPTYDFTCPIVDSVEGVTHALRTTEYHDRDDQYYFICDALGLRRPHIWEYARLNMTNTVMSKRKLTWFVDEGHVEGWDDPRLPTVRGVMRRGLTVEGLKQFIVAQGGSRSVVMMEWDKIWAFNKKVIDPVAPRYTALDSTSPLVSIELTDSISDDTSNVSLHPKNAEIGSKDVHKGKKLLLEQVDAAALKEGEIVTFVNWGNIKIGKIEKKGAVITKISATLQLDNTDYKKTTKVTWLGDVKAEAGKTIPVVTADYDHIISKAIIGKDEDWKQFINFDSVHYTKMVGEPAIKNVKKGDIIQIQRKGFYIVDQPYNPKSELSGVETPLLLIAIPDGHTGKEAEKPPKGAPVSAAASSGGSDALQLYNSIEQQGGIVRDLKTKDAKSQATKDAIAKLLDLKKKYKELTGSDHKPGAPPSAPAPTTPSSSESNSALNIYNLIEAQGLLVRELKGKDAKSQATKDAIAKLLELKKQYKEVSGSDHKPGVPPAASVASAPAPAPAAGSTNALDIYHQIESQGALVRELKGKDAKSQATKDAIAKLLALKKQYKEVTGSDHKPGVVPVSAPAPTPLAGGADIAGQIEAQGVLVRDLKNKDSKSQETKDAIAKLLELKKNYKEVTGSDYKPGPAPAAAPAKVTVPAPSVSGGDTLSKQIDDQALLVRELKMKDAKSQETKDAIAKLLQLKKQYKDATGSDYKPAPAQLAASAAAAPAPAPAFDEAALLKEIEEQGAVVRDAKSKDPKSQDSADAINKLLALKANFKKATGKDFPAPSNAQSKKGKKK | not soluble
15 | VDSVFIVGHRKLDMDALGASVGMQFFASNIVNASYVVYDPNDMNSDIERAIDYLQEDGETRLVSVERAFELITQNSLLVMVDHSKTALTLSKEFFNKFADVIVVDHHRRDEDFPKNAVLSFIESGASSASELVTELIQFQQAKDKLSRSQASILMAGIMLDTRNFASNVTSRTFDVASYLRGLGSNSMAIQKISATDF | not soluble
16 | MMNNVKYLSFALILAFSACKSGSASSQEPSEKQDTVKIFNLPQIPVVLNTVEQRTDYMVKHYWDRFDFSDTTYINQAEVPEQAWVDYCDLLEHVPLPVAQTAMKETFNRAEKNRKMLHFFEELADKYLYDPNSPMRNEEFYIPVLEALIASPALDETAKIRPQARLELAQKNRLGTKALNFTYTLDSGVKGTLYQFPAEYTLLFINNPGCHACAEMIEGLKASPVINGFTAAKKLKVLSIYPDEELDEWKKHRNDFAKEWTNGYDKELVIKNKNLYDLRAIPTLYLLDKNKTVLLKDATLQKVEQYLAERG | not soluble
17 | MGSDKIHHHHHHMYAAHPIKPLKAPKLKTQFLRRVFVGASIRRWNDQACPLEFVELDKQAHKAMIAYLLAKDLKDRGNDLDLDLLIKFFCFEFLERLVLTDIKPPIFYALQQTHSQELASYVVQSLQDEISMYFSLEELKEYLSHRPQILETQILESAHFYASKWEFDIIYHFNPNMYGVKEIKDKIDKQLHNNEHLFEGLFGEKEDLKKLVSMFGQLRFQKRWSQTPRVPQTSVLGHTLCVALMGYLLSFDLKACKSMRINHFLGGLFHDLPEILTRDIITPIKQSVAGLDHCIKEIEKKEMQNKVYSFVSLGVQEDLKYFTENEFKNRYKDKSNKIIFTKDAEELFTLYNSDEYLGVCGELLKVCDHLSAFLEAQISLSHGISSNDLIKGAQNLLELRSQTELLDLDLGKLFRDFK | not soluble
